Measured values from patent US20190225669A1 (ACCELERON PHARMA, published 2019).

Columns and labels:
Test in all cases: Biacore SPR
GDF11 = molecular target: T1, GDF11 (UniProt O95390 299-407)
T1 construct: also called BMP11
T1 sequence (looked up): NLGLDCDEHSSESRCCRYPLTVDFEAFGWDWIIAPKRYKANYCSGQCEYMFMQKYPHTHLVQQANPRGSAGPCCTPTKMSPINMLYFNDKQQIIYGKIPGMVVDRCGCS
Method: (§1) Ligands were injected and allowed to flow over the captured receptor protein.

BMP9 = molecular target: T2, BMP9 (UniProt Q9UK05 320-429)
T2 construct: also called GDF2
T2 sequence (looked up): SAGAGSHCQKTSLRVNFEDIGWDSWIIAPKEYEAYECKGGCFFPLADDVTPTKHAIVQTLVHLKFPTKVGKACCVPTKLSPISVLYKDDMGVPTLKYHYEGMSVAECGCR
Method: as §1

BMP6 = molecular target: T3, BMP6 (UniProt P22004 382-513, limits assumed)
T3 sequence (looked up): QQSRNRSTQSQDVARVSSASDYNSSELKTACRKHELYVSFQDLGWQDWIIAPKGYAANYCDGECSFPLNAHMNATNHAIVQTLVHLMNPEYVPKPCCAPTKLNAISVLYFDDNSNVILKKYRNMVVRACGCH
Method: as §1

BMP10 = molecular target: T4, BMP10 (UniProt O95393 317-424)
T4 sequence (looked up): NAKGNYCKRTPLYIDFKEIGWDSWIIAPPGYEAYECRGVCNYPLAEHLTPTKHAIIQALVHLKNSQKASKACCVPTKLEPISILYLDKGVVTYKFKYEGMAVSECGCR
Method: as §1

GDF8 = molecular target: T5, GDF8 (UniProt O14793 267-375)
T5 construct: also called myostatin
T5 sequence (looked up): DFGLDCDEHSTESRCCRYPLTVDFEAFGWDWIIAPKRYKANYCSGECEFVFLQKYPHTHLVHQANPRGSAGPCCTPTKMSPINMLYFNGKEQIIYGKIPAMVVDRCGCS
Method: as §1

GDF3 = molecular target: T6, GDF3 (UniProt Q9NR23 251-364)
T6 sequence (looked up): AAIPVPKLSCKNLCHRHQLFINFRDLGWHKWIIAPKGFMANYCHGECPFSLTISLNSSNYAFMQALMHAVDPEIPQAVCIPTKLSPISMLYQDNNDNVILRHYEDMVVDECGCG
Method: as §1

activin B = molecular target: T7, activin B (UniProt P09529 293-407)
T7 sequence (looked up): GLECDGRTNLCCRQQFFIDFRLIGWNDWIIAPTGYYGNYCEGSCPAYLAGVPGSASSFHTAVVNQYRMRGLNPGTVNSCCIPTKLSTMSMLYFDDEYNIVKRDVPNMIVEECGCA
Method: as §1

TGFβ1 = molecular target: T8, TGFβ1 (human, UniProt P01137 279-390)
T8 construct: Human (PeproTech) is stated for the A549 reporter assay; also called TGF-beta1
T8 sequence (P01137 279-390 limits assumed): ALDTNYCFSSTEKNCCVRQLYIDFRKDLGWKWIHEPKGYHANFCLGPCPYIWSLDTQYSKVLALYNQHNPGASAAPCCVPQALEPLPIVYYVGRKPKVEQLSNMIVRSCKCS
Method: (§2) The heteromeric or homomeric protein complexes were independently captured onto the system using an anti-Fc antibody. Ligands were injected and allowed to flow over the captured receptor protein.

TGFβ3 = molecular target: T9, TGFβ3 (human, UniProt P10600 301-412)
T9 construct: Human (PeproTech) is stated for the A549 reporter assay; also called TGF-beta3
T9 sequence (looked up): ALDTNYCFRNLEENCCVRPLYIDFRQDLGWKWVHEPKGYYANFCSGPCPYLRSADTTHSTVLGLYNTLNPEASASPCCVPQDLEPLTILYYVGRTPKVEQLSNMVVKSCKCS
Method: as §2

TGFβ2 = molecular target: T10, TGFβ2 (human, UniProt P61812 303-414)
T10 construct: Human (PeproTech) is stated for the A549 reporter assay; also called TGF-beta2
T10 sequence (looked up): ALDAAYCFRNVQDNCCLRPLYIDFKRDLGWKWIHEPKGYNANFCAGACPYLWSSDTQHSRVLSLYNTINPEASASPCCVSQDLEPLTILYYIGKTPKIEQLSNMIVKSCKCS
Method: as §2

Measured: binding result

B1: ALK5-Fc homodimer (Fc fusion, UniProt P36897 34-126, looked up, not shown: a dimerising Fc or GST)
chain: LQCFCHLCTKDNFTCVTDGLCFVSVTETTDKVIHNSMCIAEIDLIPRDRPFVCAPSSKTGSVTTTYCCNQDHCNKIELPTTVKSSPGLGPVEL
notes: extracellular domain
no binding: all assays above
